Results as given in patent US10894091B2, “Linker units and molecular constructs comprising the same” (priority 2017, dated 2021).
maleimide‑FITC = FITC conjugated through maleimide to the Cys of the Cys-containing CCK8 peptide

Key:
[1] = target: T1, human CCK8-type B receptor molecules on Panc-1 tumor cell line (Homo sapiens, UniProt P32239); assay: Staining analysis (FACS) of binding of CCK8 peptide to CCK-type B receptor-expressing tumor cell line; assay type: cell-based; conditions: 150 μg/ml CCK8-FITC reaction mixture, on ice 30 minutes, FIG. 24
T1 construct: human CCK8-type B receptor molecules on Panc-1 tumor cell line; endogenous in cells; host or cells: Panc-1 pancreatic carcinoma cell line
T1 sequence (P32239 1-447): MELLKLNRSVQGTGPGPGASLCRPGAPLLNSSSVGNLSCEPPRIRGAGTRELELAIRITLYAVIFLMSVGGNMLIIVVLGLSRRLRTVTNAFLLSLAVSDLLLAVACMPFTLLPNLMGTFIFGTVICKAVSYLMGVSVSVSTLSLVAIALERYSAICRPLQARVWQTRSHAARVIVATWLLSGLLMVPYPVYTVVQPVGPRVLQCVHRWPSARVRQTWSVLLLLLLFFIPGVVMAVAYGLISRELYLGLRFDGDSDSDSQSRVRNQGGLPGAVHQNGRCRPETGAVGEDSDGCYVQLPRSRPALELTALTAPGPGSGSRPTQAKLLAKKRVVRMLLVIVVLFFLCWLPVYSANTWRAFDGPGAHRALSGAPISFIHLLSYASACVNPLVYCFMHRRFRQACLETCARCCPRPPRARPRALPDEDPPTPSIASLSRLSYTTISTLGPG
Method: The CCK8 peptide molecule was analyzed for its ability to bind to human CCK8-type B receptor molecules on Panc-1 tumor cell line. Panc-1 was established from a pancreatic carcinoma, which was extracted via pancreatico-duodenectomy specimen from an individual. Malignancy of this cell line was verified via in vitro and in vivo assays. Prior to staining, the Cys-containing CCK8 peptide was conjugated with maleimide-FITC to produce a FITC-labeled CCK8 peptide as a detective CCK8 molecule with FITC. The assay was then performed by incubating 2×10^6 Panc-1 cells with 150 μg/ml of the reaction mixture of CCK8-FITC molecule in PBS, with 1 FBS and 1% sodium azide on ice for 30 minutes in the dark. The staining of maleimide-FITC alone was used a negative control. The staining of cells was analyzed by FACS (FACSCanto II; BD Biosciences). The x-axis of histogram is the fluorescence intensity. In FIG. 24, the dark area represents the background of fluorescence distribution of Panc-1 cells, the dashed line is the fluorescence distribution of Panc-1 cells stained maleimide-FITC and the dark line is the fluorescence distribution of Panc-1 cells stained CCK8-FITC.

[2] = target: T2, human CD3 on Jurkat T cell line (Homo sapiens, UniProt P07766); assay: Staining analysis (FACS) of binding of anti-CD3 scFv to T cells; assay type: cell-based
T2 construct: human T lymphocyte cell which express the T cell receptor (TcR)/CD3 complexes on the cell surface; endogenous in cells; host or cells: Jurkat T cell line
T2 sequence (P07766 23-207): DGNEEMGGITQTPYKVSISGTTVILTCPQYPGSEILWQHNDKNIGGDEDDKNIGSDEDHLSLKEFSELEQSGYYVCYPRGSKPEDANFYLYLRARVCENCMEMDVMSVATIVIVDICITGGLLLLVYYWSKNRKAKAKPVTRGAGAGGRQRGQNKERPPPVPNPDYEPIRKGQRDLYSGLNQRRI
T2 sequence (P09693 23-182 partner): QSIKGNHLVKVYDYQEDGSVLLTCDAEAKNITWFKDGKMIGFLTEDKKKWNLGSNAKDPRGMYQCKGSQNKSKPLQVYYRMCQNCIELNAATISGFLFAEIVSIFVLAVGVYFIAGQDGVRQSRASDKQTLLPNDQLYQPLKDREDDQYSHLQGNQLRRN
T2 sequence (P04234 22-171 partner): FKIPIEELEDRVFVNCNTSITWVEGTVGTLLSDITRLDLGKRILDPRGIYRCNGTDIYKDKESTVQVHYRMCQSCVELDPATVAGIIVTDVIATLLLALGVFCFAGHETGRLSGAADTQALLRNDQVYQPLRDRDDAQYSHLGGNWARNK
T2 sequence (P20963 22-164 partner): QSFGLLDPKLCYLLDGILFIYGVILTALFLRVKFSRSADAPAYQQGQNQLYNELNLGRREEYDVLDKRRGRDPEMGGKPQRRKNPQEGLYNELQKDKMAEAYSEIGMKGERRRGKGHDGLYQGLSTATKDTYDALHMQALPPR
T2 sequence (P01848 whole entry partner): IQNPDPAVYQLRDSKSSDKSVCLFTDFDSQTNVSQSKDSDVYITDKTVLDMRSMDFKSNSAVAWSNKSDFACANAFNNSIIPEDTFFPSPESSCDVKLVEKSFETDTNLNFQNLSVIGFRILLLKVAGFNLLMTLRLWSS
T2 sequence (P01850 whole entry partner): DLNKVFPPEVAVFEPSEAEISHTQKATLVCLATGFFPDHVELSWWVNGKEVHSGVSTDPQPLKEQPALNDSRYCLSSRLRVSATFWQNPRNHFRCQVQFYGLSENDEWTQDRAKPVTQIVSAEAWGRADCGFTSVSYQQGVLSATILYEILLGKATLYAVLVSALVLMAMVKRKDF
Method: The ability of the mutated teplizumab to bind to human T lymphocytes, which express CD3 was studied with Jurkat T cell line. The mutated teplizumab was analyzed for their ability to bind to human CD3 molecules on Jurkat T cell line. Jurkat cells are immortalized line of human T lymphocyte cell which express the T cell receptor (TcR)/CD3 complexes on the cell surface.
The assay was performed by incubating 2×10^6 Jurkat T cells with 0.1 and 1 μg/ml of the scFv in PBS with 1 FBS and 0.1% sodium azide on ice for 30 minutes. Cells were washed and incubated with FITC-conjugated Protein L (ACROBiosystems Inc., Newark, USA), diluted 1:200 in PBS/FBS, at 4° C. for 30 minutes in the dark. Protein L-FITC and FITC-conjugated rabbit anti-mouse IgG.Fc (AbD Serotec) were used as secondary antibodies. The staining of secondary antibodies alone were as negative controls. OKT3, a mouse monoclonal antibody specific for human CD3, was used as the positive control. The staining of cells was analyzed by FACS (FACSCanto II; BD Biosciences). The x-axis of histogram is the fluorescence intensity.
The purity of DBCO-conjugated scFvs specific for CD3 was identified through Coomassie staining of 12% SDS-PAGE (data not shown).

[3] = flow cytometric analysis, FIG. 23C

Row | Molecule | binding to Panc-1 cells [1] | binding to T cells ([2]; Jurkat T cells, 0.1 and 1 μg/ml scFv, on ice 30 minutes, FITC-conjugated Protein L, FACS, FIG. 23B) | binding to T cells [2, 3]
1 | FITC-labeled CCK8 peptide (Ac-C(maleimide‑FITC)GGGGSDYMGWMDF-NH2; ends and bridges not checked) | bound to Panc-1 cells |  | 
2 | mutated teplizumab: scFv of teplizumab with CDR3 VH cysteine substituted by serine, SEQ ID NO: 21 (protein) scFv: QVQLVQSGGGVVQPGRSLRLSCKASGYTFTRYTMHWVRQAPGKGLEWIGYINPSRGYTNYNQKVKDRFTISRDNSKNTAFLQMDSLRPEDTGVYFCARYYDDHYSLDYWGQGTPVTVSSGSTSGSGKPGSGEGSTKGDIQMTQSPSSLSASVGDRVTITCSASSSVSYMNWYQQTPGKAPKRWIYDTSKLASGVPSRFSGSGSGTDYTFTISSLQPEDIATYYCQQWSSNPFTFGQGTKLQITRGGGGSGGGGSC |  | bound to T cells | bound to T cells
3 | DBCO-conjugated scFv specific for CD3: mutated teplizumab scFv conjugated at C-terminal cysteine with Mal-PEG5-DBCO (conjugate) scFv: QVQLVQSGGGVVQPGRSLRLSCKASGYTFTRYTMHWVRQAPGKGLEWIGYINPSRGYTNYNQKVKDRFTISRDNSKNTAFLQMDSLRPEDTGVYFCARYYDDHYSLDYWGQGTPVTVSSGSTSGSGKPGSGEGSTKGDIQMTQSPSSLSASVGDRVTITCSASSSVSYMNWYQQTPGKAPKRWIYDTSKLASGVPSRFSGSGSGTDYTFTISSLQPEDIATYYCQQWSSNPFTFGQGTKLQITRGGGGSGGGGSC |  |  | bound to T cells
